Assay results from patent US20030203372A1, “Analysis method” (priority 2000, published 2003).

Assays:
[1] = tested on: primary human cell cultures (11 cell types); experiment: Custom gene array, 11 human cell types in normoxia or hypoxia for 6 hr and 18 hr; format: cell-based;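 as to mRNA expression level, #1 HY 18 hr: cell type #1 is adipocyte from subcutaneous adult adipose tissue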;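 as to mRNA expression level, #1 HY 6 hr: cell type #1 is adipocyte from subcutaneous adult adipose tissue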;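 as to mRNA expression level, #1 NO: cell type #1 is adipocyte from subcutaneous adult adipose tissue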;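 as to mRNA expression level, #2 HY 18 hr: cell type #2 is fetal cardiomyocyte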;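 as to mRNA expression level, #2 HY 6 hr: cell type #2 is fetal cardiomyocyte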;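 as to mRNA expression level, #2 NO: cell type #2 is fetal cardiomyocyte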;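 as to mRNA expression level, #3 HY 6 hr: cell type #3 is human umbilical vein endothelial cells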;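 as to mRNA expression level, #3 NO: cell type #3 is human umbilical vein endothelial cells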;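 as to mRNA expression level, #4 HY 18 hr: cell type #4 is adult dermal fibroblast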;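 as to mRNA expression level, #4 HY 6 hr: cell type #4 is adult dermal fibroblast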;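 as to mRNA expression level, #4 NO: cell type #4 is adult dermal fibroblast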;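 as to mRNA expression level, #5 HY 6 hr: cell type #5 is adult hepatocyte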;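 as to mRNA expression level, #5 NO: cell type #5 is adult hepatocyte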;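 as to mRNA expression level, #6 HY 6 hr: cell type #6 is blood-derived macrophage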;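 as to mRNA expression level, #6 NO: cell type #6 is blood-derived macrophage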
Summary of the method: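 Values are each gene's expression relative to its median over all cell types and conditions, after per-array normalisation to control genes and merging of replicate arrays. Cells were 11 human types, mostly unmodified primary cultures, kept in normoxia or exposed to hypoxia for 6 hr or 18 hr.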

human macrophages = experiment: Custom gene array, macrophages with no cytokines, IL-10 or LPS + IFN, in normoxia and hypoxia; format: cell-based; conditions: Table 16, referenced to median of the gene over 6 conditions
Summary of the method: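 Cultured macrophages were left untreated or given IL-10 or LPS + IFN, each at 100 ng/ml final, for 6 hr under normoxia or hypoxia (0.1% oxygen). Six conditions in total.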

[2] = tested on: human breast and ovary tumors; experiment: Custom gene array, breast and ovary tumors versus normal adjacent tissue; conditions: Table 19
Summary of the method: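 Values are per-gene relative to that gene's median across the series, after per-chip normalisation for labelling and hybridization efficiency. Samples: breast and ovary tumors with normal tissue from 5 patients of varied diagnoses, mostly from the same individual (one age-matched separate donor), compared within patient.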

B1: p1E4 (nucleic acid, listed as Homo Sapiens)
DNA: AATTATATATTACATGTTTATTAAGAGCACAACTTTTATGTAAAATTTACATTTAATGAAAAAAATCAAAAATATTTACAAAATCTTGGAAGACAGATGTGCATTGTTCTAATTACAATCCAAAGTAGTAAATAACAATCCTTTAAAACTCACATTTATTAGAGTTGTGTTTACAAATTCTTGGTTAAAGAGGCAGCTACAAAGTTTACCACTATATATAAGCAAGAACCAGCTTGCTAGGTACATTTCCCATTGAAAATCTACTGGTCTCTTTTACACCATTAGTGGATTTTTAAATGGAAAAAAAAAATCAATATAAACTCATATGGCTTCAAAATTGTA
modifications: EST array clone
Question: Which “mRNA expression level, #1 HY 6 hr” value ([1]; cell type #1, hypoxia 6 hr) does the source give for B1 here?
Answer: Its value is 0.51.

Question: And the “mRNA expression level, #1 HY 18 hr” value ([1]; cell type #1, hypoxia 18 hr)?
Answer: The value was 0.79.

Question: What about the “mRNA expression level, #1 NO” value ([1]; cell type #1, normoxia) of the same molecule?
Answer: Its value is 0.65.

Question: What about the “mRNA expression level, #2 HY 6 hr” value ([1]; cell type #2, hypoxia 6 hr) of the same molecule?
Answer: The value was 1.24.

Question: And the “mRNA expression level, #2 HY 18 hr” value ([1]; cell type #2, hypoxia 18 hr)?
Answer: The value was 1.18.

Question: And the “mRNA expression level, #2 NO” value ([1]; cell type #2, normoxia)?
Answer: Its value is 1.06.

Question: And the “mRNA expression level, #3 HY 6 hr” value ([1]; cell type #3, hypoxia 6 hr)?
Answer: The value was 1.57.

Question: And the “mRNA expression level, #3 HY 18 hr” value ([1]; cell type #3, hypoxia 18 hr)?
Answer: Its value is 1.70.

Question: What about the “mRNA expression level, #3 NO” value ([1]; cell type #3, normoxia) of the same molecule?
Answer: The value was 1.59.

Question: What about the “mRNA expression level, #4 HY 6 hr” value ([1]; cell type #4, hypoxia 6 hr) of the same molecule?
Answer: The value was 0.76.

Question: And the “mRNA expression level, #4 HY 18 hr” value ([1]; cell type #4, hypoxia 18 hr)?
Answer: Its value is 0.91.

Question: What about the “mRNA expression level, #4 NO” value ([1]; cell type #4, normoxia) of the same molecule?
Answer: The value was 0.80.

Question: What about the “mRNA expression level, #5 HY 6 hr” value ([1]; cell type #5, hypoxia 6 hr) of the same molecule?
Answer: Its value is 0.39.

Question: What about the “mRNA expression level, #5 NO” value ([1]; cell type #5, normoxia) of the same molecule?
Answer: The value was 0.34.

Question: What about the “mRNA expression level, #6 HY 6 hr” value ([1]; cell type #6, hypoxia 6 hr) of the same molecule?
Answer: The value was 1.13.

Question: And the “#6 HY 18 hr (mRNA expression level)” value ([1]; cell type #6, hypoxia 18 hr)?
Answer: The value was 1.21.

Question: What about the “mRNA expression level, #6 NO” value ([1]; cell type #6, normoxia) of the same molecule?
Answer: The value was 0.97.

Question: And the “#7 HY 6 hr (mRNA expression level)” value ([1]; cell type #7, hypoxia 6 hr)?
Answer: The value was 1.17.

Question: And the “#7 HY 18 hr (mRNA expression level)” value ([1]; cell type #7, hypoxia 18 hr)?
Answer: The value was 0.82.

Question: And the “#7 NO (mRNA expression level)” value ([1]; cell type #7, normoxia)?
Answer: Its value is 1.65.

Question: And the “#8 HY 6 hr (mRNA expression level)” value ([1]; cell type #8, hypoxia 6 hr)?
Answer: Its value is 1.28.

Question: And the “#8 HY 18 hr (mRNA expression level)” value ([1]; cell type #8, hypoxia 18 hr)?
Answer: The value was 1.71.

Question: What about the “#8 NO (mRNA expression level)” value ([1]; cell type #8, normoxia) of the same molecule?
Answer: The value was 0.74.

Question: What about the “#9 HY 6 hr (mRNA expression level)” value ([1]; cell type #9, hypoxia 6 hr) of the same molecule?
Answer: Its value is 0.97.

Question: And the “#9 HY 18 hr (mRNA expression level)” value ([1]; cell type #9, hypoxia 18 hr)?
Answer: The value was 0.93.

Question: And the “#9 NO (mRNA expression level)” value ([1]; cell type #9, normoxia)?
Answer: The value was 0.95.

Question: And the “#10 HY 6 hr (mRNA expression level)” value ([1]; cell type #10, hypoxia 6 hr)?
Answer: Its value is 1.35.

Question: What about the “#10 HY 18 hr (mRNA expression level)” value ([1]; cell type #10, hypoxia 18 hr) of the same molecule?
Answer: The value was 1.44.

Question: What about the “#10 NO (mRNA expression level)” value ([1]; cell type #10, normoxia) of the same molecule?
Answer: Its value is 0.78.

Question: What about the “#11 HY 6 hr (mRNA expression level)” value ([1]; cell type #11, hypoxia 6 hr) of the same molecule?
Answer: Its value is 1.48.

Question: And the “#11 HY 18 hr (mRNA expression level)” value ([1]; cell type #11, hypoxia 18 hr)?
Answer: Its value is 1.35.

Question: And the “#11 NO (mRNA expression level)” value ([1]; cell type #11, normoxia)?
Answer: Its value is 1.30.

Question: What about the “HIGHEST FOLD CHANGE IN HYPOXIA (hr hypoxia + cell type)” value ([1]; hypoxia/normoxia induction ratio, 18 hr monocyte) of the same molecule?
Answer: The value was 2.31 (18 hr monocyte) fold.

Question: What about the “mRNA EXPRESSION (experimental condition) #1” value (human macrophages; #1 no cytokines/normoxia) of the same molecule?
Answer: Its value is 1.22.

Question: And the “mRNA EXPRESSION (experimental condition) #2” value (human macrophages; #2 no cytokines/hypoxia)?
Answer: Its value is 1.13.

Question: And the “mRNA EXPRESSION (experimental condition) #3” value (human macrophages; #3 IL-10/normoxia)?
Answer: The value was 1.09.

Question: What about the “mRNA EXPRESSION (experimental condition) #4” value (human macrophages; #4 IL-10/hypoxia) of the same molecule?
Answer: Its value is 0.96.

Question: What about the “mRNA EXPRESSION (experimental condition) #5” value (human macrophages; #5 LPS/IFN/normoxia) of the same molecule?
Answer: The value was 0.40.

Question: What about the “mRNA EXPRESSION (experimental condition) #6” value (human macrophages; #6 LPS/IFN/hypoxia) of the same molecule?
Answer: The value was 0.40.

Question: And the “gene expression level on custom gene array, Breast nor H” value ([2]; breast, normal adjacent tissue, patient H)?
Answer: Its value is 1.00.

Question: What about the “gene expression level on custom gene array, Breast nor K” value ([2]; breast, normal adjacent tissue, patient K) of the same molecule?
Answer: Its value is 1.06.

Question: And the “gene expression level on custom gene array, Breast tum H” value ([2]; breast, tumor tissue, patient H)?
Answer: The value was 0.69.

Question: And the “gene expression level on custom gene array, Breast tum K” value ([2]; breast, tumor tissue, patient K)?
Answer: Its value is 0.46.

Question: And the “gene expression level on custom gene array, Ovary nor E” value ([2]; ovary, normal adjacent tissue, patient E)?
Answer: Its value is 1.30.

Question: And the “gene expression level on custom gene array, Ovary nor F” value ([2]; ovary, normal adjacent tissue, patient F)?
Answer: The value was 0.88.

Question: What about the “gene expression level on custom gene array, Ovary nor G” value ([2]; ovary, normal adjacent tissue, patient G) of the same molecule?
Answer: The value was 0.70.

Question: And the “gene expression level on custom gene array, Ovary tum E” value ([2]; ovary, tumor tissue, patient E)?
Answer: Its value is 1.67.

Question: What about the “gene expression level on custom gene array, Ovary tum F” value ([2]; ovary, tumor tissue, patient F) of the same molecule?
Answer: The value was 0.65.

Question: And the “gene expression level on custom gene array, Ovary tum G” value ([2]; ovary, tumor tissue, patient G)?
Answer: The value was 0.17.
